The experiment deals with T1, recombinant flag-tagged NDRG1 purified from Drosophila S2 cells (human, UniProt Q92597-1 1-394).
T1 construct: NDRG1; The vector pMT/BiP/V5-His adds a BiP secretion signal (the protein was collected as secreted protein); also called NDRG1flag; NDRG1Flag; not shown: Flag, C-terminal, kept
Description: pull-down; NDRG1Flag bound to M2 agarose; 1 microgram of purified Rab4aGST loaded with 10 µM GTPγS (30 min, 37 °C) in 20 mM HEPES, 1 mM MgCl2, 1 mM DTT, 100 mM potassium acetate, incubated 1 h; Western blot. The conditions noted are these: both partners purified. On the technique in general: Immunoblotting shows a protein as a band on a membrane.

T1 sequence (Q92597 whole entry): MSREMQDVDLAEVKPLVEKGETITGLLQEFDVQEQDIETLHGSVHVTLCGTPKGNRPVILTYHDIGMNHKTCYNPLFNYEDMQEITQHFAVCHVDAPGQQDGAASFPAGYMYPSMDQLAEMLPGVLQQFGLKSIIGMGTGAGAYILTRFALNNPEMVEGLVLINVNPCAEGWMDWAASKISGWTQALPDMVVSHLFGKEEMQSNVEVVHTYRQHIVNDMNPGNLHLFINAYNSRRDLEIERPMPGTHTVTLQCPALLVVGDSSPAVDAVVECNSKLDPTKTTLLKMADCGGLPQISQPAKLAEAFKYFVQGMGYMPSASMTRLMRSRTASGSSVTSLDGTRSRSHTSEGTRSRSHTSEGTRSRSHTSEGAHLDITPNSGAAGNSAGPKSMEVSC

B1: Rab4a produced as a GST fusion protein (natural protein, UniProt P20338 1-218, looked up)
chain: MSQTAMSETYDFLFKFLVIGNAGTGKSCLLHQFIEKKFKDDSNHTIGVEFGSKIINVGGKYVKLQIWDTAGQERFRSVTRSYYRGAAGALLVYDITSRETYNALTNWLTDARMLASQNIVIILCGNKKDLDADREVTFLEASRFAQENELMFLETSALTGENVEEAFVQCARKILNKIESGELDPERMGSGIQYGDAALRQLRSPRRAQAPNAQECGC
notes: Rab4a amplified from a prostate cDNA library and cloned in PGEX2T; also called Rab4aGST; recombinant Rab4a; source: E. coli BL21 (DE3), purified (glutathione agarose)
Regarding B1, the binding result is reported as “binds”.

Values taken from publication PMC1952073, “The N-Myc Down Regulated Gene1 (NDRG1) Is a Rab4a Effector Involved in Vesicular Recycling of E-Cadherin” (PLoS ONE, 2007).
